B1: FAS-associated factor 1 (Homo sapiens), Q9UNN5-1 (parent)
chain: MASNMDREMILADFQACTGIENIDEAITLLEQNNWDLVAAINGVIPQENGILQSEYGGETIPGPAFNPASHPASAPTSSSSSAFRPVMPSRQIVERQPRMLDFRVEYRDRNVDVVLEDTCTVGEIKQILENELQIPVSKMLLKGWKTGDVEDSTVLKSLHLPKNNSLYVLTPDLPPPSSSSHAGALQESLNQNFMLIITHREVQREYNLNFSGSSTIQEVKRNVYDLTSIPVRHQLWEGWPTSATDDSMCLAESGLSYPCHRLTVGRRSSPAQTREQSEEQITDVHMVSDSDGDDFEDATEFGVDDGEVFGMASSALRKSPMMPENAENEGDALLQFTAEFSSRYGDCHPVFFIGSLEAAFQEAFYVKARDRKLLAIYLHHDESVLTNVFCSQMLCAESIVSYLSQNFITWAWDLTKDSNRARFLTMCNRHFGSVVAQTIRTQKTDQFPLFLIIMGKRSSNEVLNVIQGNTTVDELMMRLMAAMEIFTAQQQEDIKDEDEREARENVKREQDEAYRLSLEADRAKREAHEREMAEQFRLEQIRKEQEEEREAIRLSLEQALPPEPKEENAEPVSKLRIRTPSGEFLERRFLASNKLQIVFDFVASKGFPWDEYKLLSTFPRRDVTQLDPNKSLLEVKLFPQETLFLEAKE

Variants of: B1
Details: with tera_human VCP

Effect of a mutation on the interaction, decreasing interaction:
R579A
P620N
R621A
P640N
F619A

Reference: IntAct's records for PubMed 21645854
